The text below walks through data of patent publication US20140223606, “COMPOSITIONS AND METHODS COMPRISING SEQUENCES HAVING MEGANUCLEASE ACTIVITY” (PIONEER HI BRED INTERNATIONAL INC, published 2014).

Substitutions are numbered along the chain they refer to.

Common to all, as to settings: tags: NLS, 6xHis
In one series the target is T1, ZM6.3(H2) (artificial).
T1 chain: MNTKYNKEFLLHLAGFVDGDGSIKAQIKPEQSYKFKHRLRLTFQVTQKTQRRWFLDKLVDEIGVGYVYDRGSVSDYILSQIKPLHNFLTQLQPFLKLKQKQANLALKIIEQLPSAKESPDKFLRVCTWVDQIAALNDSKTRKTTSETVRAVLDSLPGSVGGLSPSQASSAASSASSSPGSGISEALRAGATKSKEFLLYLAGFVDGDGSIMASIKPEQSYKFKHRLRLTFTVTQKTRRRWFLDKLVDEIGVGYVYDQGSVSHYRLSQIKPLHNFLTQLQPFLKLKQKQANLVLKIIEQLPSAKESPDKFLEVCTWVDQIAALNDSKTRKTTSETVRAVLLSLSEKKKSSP
As to the kind of experiment: cell_activity; yeast 37 C; 28 C: 2. The protocol:
(§1) A 3 mL culture of selective media (MP Biomedical) was inoculated with a single colony of the yeast screening strain and grown at 30° C. overnight. On the following day, a 50 ml YPD culture (MP Biomedical) was started with 2 ml of the overnight culture and grown at 30° C. overnight. On the following day, the cells were harvested by centrifugation at 4000 rpm. The cells were resuspended in 100 ml ice cold water and centrifuged again. The cells were then washed in 1.2 M sorbitol, followed by treatment with 2 ml of 10 mM Tris pH 8.0, 1 mM EDTA, 100 mM Lithium acetate, 10 mM DTT, 0.6M sorbitol for 30 minutes at 30° C. with shaking. The cells were recovered by centrifugation, washed in 40 ml 1.2M sorbitol and finally resuspended in 250 microliters of 1.2M sorbitol. 50 microliter aliquots were transferred to test tubes on ice. Up to 5 microliters of DNA (100-500 nanograms) were added. The suspension was transferred to a 0.2 cm electroporation cuvette, on ice. Electroporation was performed with a pulse charge at 1.5 kV, 200 ohms, 25 microF (pulse time of 5 milliseconds). 1 mL YPD media (MP Biomedical) was added and the cells were allowed to recover at 30° C. for 1-2 hr. The cells were centrifuged, resuspended in 100 uL 1M sorbitol and plated on selective media lacking leucine and containing 2% galactose. The resulting yeast colonies were incubated at various temperatures ranging from 22 to 37 degrees Celsius for 7-10 days. I-CreI and meganucleases derived from it have maximal activity at or above 37 degrees Celsius. Screening was performed at a range of temperatures from 22 to 37 degrees in order to observe increases in activity at lower temperatures which are relevant to certain biological systems (eg. plant cells, plant cell cultures, etc). At that time the red/white sectoring phenotype, indicative of meganuclease activity was observed. Colonies with increased white sectoring over the parental meganuclease (indicating colonies expressing a meganuclease with increased meganuclease activity), also referred to as “hits” and sometimes completely white, were isolated for further analysis.
(§2) A total of 15 Zm6.3 variants with increased activity were confirmed in the yeast system (as described in Example 6). Increased activity was observed across a range of temperatures: 28 degrees Celsius, 30 degrees Celsius and 37 degrees Celsius, as shown in Table 15.

In a further series the target is T2, ZM6.3(G3) (artificial).
T2 chain: T1 chain with H12Y, Q50R, F54I, A105V, R124E, R237Q, L340D
Put plainly: cell_activity; yeast 37 C; 28 C: 2. The protocol: as §1, §2

For a further series, the target named is T3, ZM6.3(G4) (artificial).
T3 chain: T1 chain with S32R, A105V, R237Q, L340D
As to the kind of experiment: cell_activity; yeast 37 C; 28 C: 2. On the procedure:
as §1, §2

The next series deals with T4, MHP14(13) (artificial).
T4 chain: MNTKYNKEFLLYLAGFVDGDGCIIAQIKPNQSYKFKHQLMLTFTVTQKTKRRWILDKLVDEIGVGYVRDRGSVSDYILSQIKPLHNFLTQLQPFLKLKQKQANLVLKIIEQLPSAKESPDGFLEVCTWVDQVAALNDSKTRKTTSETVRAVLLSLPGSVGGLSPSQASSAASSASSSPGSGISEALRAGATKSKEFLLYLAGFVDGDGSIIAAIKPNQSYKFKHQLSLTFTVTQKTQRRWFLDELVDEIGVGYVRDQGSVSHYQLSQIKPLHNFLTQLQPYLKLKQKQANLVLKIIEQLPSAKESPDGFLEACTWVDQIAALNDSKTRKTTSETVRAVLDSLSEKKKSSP
As to the kind of experiment: cell_activity; yeast 37 C; 28 C: 1. The protocol: (§3) A 3 mL culture of selective media (MP Biomedical) was inoculated with a single colony of the yeast screening strain and grown at 30° C. overnight. On the following day, a 50 ml YPD culture (MP Biomedical) was started with 2 ml of the overnight culture and grown at 30° C. overnight. On the following day, the cells were harvested by centrifugation at 4000 rpm. The cells were resuspended in 100 ml ice cold water and centrifuged again. The cells were then washed in 1.2 M sorbitol, followed by treatment with 2 ml of 10 mM Tris pH 8.0, 1 mM EDTA, 100 mM Lithium acetate, 10 mM DTT, 0.6M sorbitol for 30 minutes at 30° C. with shaking. The cells were recovered by centrifugation, washed in 40 ml 1.2M sorbitol and finally resuspended in 250 microliters of 1.2M sorbitol. 50 microliter aliquots were transferred to test tubes on ice. Up to 5 microliters of DNA (100-500 nanograms) were added. The suspension was transferred to a 0.2 cm electroporation cuvette, on ice. Electroporation was performed with a pulse charge at 1.5 kV, 200 ohms, 25 microF (pulse time of 5 milliseconds). 1 mL YPD media (MP Biomedical) was added and the cells were allowed to recover at 30° C. for 1-2 hr. The cells were centrifuged, resuspended in 100 uL 1M sorbitol and plated on selective media lacking leucine and containing 2% galactose. The resulting yeast colonies were incubated at various temperatures ranging from 22 to 37 degrees Celsius for 7-10 days. I-CreI and meganucleases derived from it have maximal activity at or above 37 degrees Celsius. Screening was performed at a range of temperatures from 22 to 37 degrees in order to observe increases in activity at lower temperatures which are relevant to certain biological systems (eg. plant cells, plant cell cultures, etc). At that time the red/white sectoring phenotype, indicative of meganuclease activity was observed. Colonies with increased white sectoring over the parental meganuclease (indicating colonies expressing a meganuclease with increased meganuclease activity), also referred to as “hits” and sometimes completely white, were isolated for further analysis. […]

For a further series, the target named is T5, MHP14(08) (artificial).
T5 chain: T4 chain with D56L, G121K, V132I, L153D, E244K, Y281F, G308K, A312V, V316A
Put plainly: cell_activity; yeast 37 C; 28 C: 1. On the procedure:
as §3

B1: ZM6.3 recognition site (dsDNA)
DNA 1: CAGGCTCTCGTAAATGCGCCTG
DNA 2: CAGGCGCATTTACGAGAGCCTG
On to B1, for which the activity in the series with ZM6.3(H2), with ZM6.3(G3) and in the series with ZM6.3(G4) was 4 score 0-4 in each case.

B2: MHP14 recognition site (dsDNA)
DNA 1: CAAACAGATTCACGTCAGATTT
DNA 2: AAATCTGACGTGAATCTGTTTG
Turning to B2, the activity amounted to 3.5 score 0-4 with MHP14(13) and 4 score 0-4 with MHP14(08).
